Substitutions are numbered along the chain they refer to.
Columns and labels:
IL18 = biological target: T1, IL18 (Homo sapiens, UniProt Q14116); conditions: Kim et al., PNAS 2000; read-out: Dissociation constant (Kd) for IL18; cited from earlier work
T1 sequence (Q14116 37-193): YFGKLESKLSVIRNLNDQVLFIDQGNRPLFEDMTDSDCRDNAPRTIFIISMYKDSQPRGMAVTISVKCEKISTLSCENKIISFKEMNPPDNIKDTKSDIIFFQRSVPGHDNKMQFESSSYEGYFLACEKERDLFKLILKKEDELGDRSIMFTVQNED

[1] = MC38ova tumor-bearing mice treated with anti-mIL18BP or engineered mIL-18: weight, serum cytokines, spleen; format: in vivo, mouse; conditions: spleens harvested 24 hours after the 4th treatment (IL-15: single dose), vs control
Protocol: Experiments were performed in C57Bl/6 (female, 6-8 wk, Envigo). Mice were anesthetized with 10% Ketamine and 10% Xylazine mixture injected intraperitoneal. Next, mice were inoculated with MC38ova cells (1.2×10^6) subcutaneously to the right flank in 50 μl/mice.
Spleens were harvested from mice 24 hours after the 4th treatment and weighed. For IL15 experiments, mice were treated with a single dose of 0.5 μg, 1.5 μg of IL15, or with a mix of 0.5 μg IL15 and 2.33 μg IL15R.

human whole blood = test: Whole blood loop assay (ID.Flow); format: cell-based; conditions: ex vivo whole blood loop, six healthy volunteers, 24 hr
Protocol: Flow, an ex vivo system that mimics the human blood circulation. Fresh whole blood was taken from six healthy volunteers and immediately transferred to a whole blood loop system. The test items were administered, and the blood was set to circulate at 37° C. to prevent clotting. Blood samples collected at the 24 hr time point were analyzed for hematology and flow cytometry parameters and then processed to plasma for cytokine analysis. The anti-CD52 antibody Alemtuzumab was included as a reference antibody with manageable cytokine release in the clinic.

[2] = biological target: T2, recombinant human IL18-BP (Homo sapiens, UniProt O95998); test: MEL624:TIL assay, IFNγ secretion; format: cell-based; conditions: rhIL-18 30 ng/ml + rhIL-18BP 1 μg/ml, 24 h, vs isotype control
T2 construct: purchased R&D systems 119-BP; host or cells: added to MEL624/PD-L1 + CMV-reactive T-cell culture
T2 sequence (O95998 31-194): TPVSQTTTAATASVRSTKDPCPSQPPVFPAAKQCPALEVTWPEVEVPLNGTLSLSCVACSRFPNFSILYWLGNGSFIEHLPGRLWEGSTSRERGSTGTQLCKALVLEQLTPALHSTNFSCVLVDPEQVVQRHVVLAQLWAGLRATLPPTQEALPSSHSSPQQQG
Protocol: Human MEL624 cells were thawed and grown in DMEM with 10% FBS, 1% Glutamax, 1% Penicillin-Streptomycin Solution and 1% HEPES buffer. The cells were then seeded at 75 k cells/well in a 96 well plate in the assay medium (IMDM with 10% human serum, 1% Glutamax, 1% MEM eagle, 1% Sodium Pyruvate and 1% Penicillin-Streptomycin Solution) and incubated 1 hour in 37° C., 5% CO2 incubator before co-culture with human tumor infiltrating lymphocytes that were previously expanded using known melanoma antigens (TILs). Human TILs were thawed in full TIL media and 75 k cells/well were co-cultured with the MEL624 cells to create an effector:target ratio of 1:1. The co-cultured cells were then treated with rhIL-18 (30 ng/ml) and rhIL-18BP (1 μg/ml) for 30 min in 37° C., 5% CO2 incubator to allow IL-18:IL-18BP complex formation. After 30 minutes, anti-human IL-18BP mAb (ADI-71722, dose titration, 30 μg/ml-0.01 μg/ml, dilution factor of 1:3) or relevant isotype control (hIgG1 30 μg/ml) were added to the co-culture to examine its capability to restore IL-18 activity. Cells and all added solutions were prepared in full assay medium to a final volume of 200 μl/well. Plates were incubated for 24 hours in 37° C., 5% CO2 incubator, after which the supernatant was collected for cytokine secretion evaluation. […]
Where applicable, the EC50 value was calculated using GraphPad Prism software.

[3] = biological target: T2, recombinant human IL18-BP; test: CMV recall assay, IFNγ secretion by CMV-reactive T-cells; format: cell-based; conditions: rhIL-18 30 ng/ml + rhIL-18BP 2 μg/ml; antibodies 10 μg/ml
Protocol: Human MEL-624 overexpressing PD-L1 cells were thawed and loaded with CMV pp65 peptide (0.03 μg/ml). The cells were seeded at 100K/well in a 96 well plate and incubated for 30 minutes in 37° C., 5% CO2 incubator with a combination rhIL-18 (30 ng/ml, R&D systems, 9124-IL/CF) and rhIL-18BP-Fc chimeric protein ([…], R&D systems 119-BP) to allow IL-18+IL-18BP complex formation. After 30 minutes, anti-human IL-18BP (ADI-71722, anti-human PVRIG, anti-human TIGIT (anti-TIGIT), anti-human PD1 (Pembrolizumab) or relevant isotype control (hIgG4) were added to the culture to examine their capability to restore IL-18 activity. All antibodies were added to a final concentration of 10 μg/ml. 30 minutes post incubation with antibodies, thawed CMV-reactive T-cells were added to the culture. Cells and all added solutions were prepared in full IMDM (IMDM media with 10% human serum, 1% Glutamax, 1% MEM eagle, 1% sodium pyruvate, and 1% Penicillin-Streptomycin Solution) to a final volume of 200 μl/well. Plates were incubated for 24 hours in 37° C., 5% CO2 incubator, after which the supernatant was collected for IFNγ secretion evaluation. All tests were done in triplicates and each repeated with three donors.
MEL624 cells that overexpress PD-L1 were loaded with CMV peptide pp65. […] CMV-specific T-cells were then added to the culture and IFNg secretion was measured after an overnight incubation.

MEL624 cells = test: Killing of MEL624 melanoma cells by human TILs (IncuCyte); format: cell-based; conditions: rhIL-18 50 ng/ml + rhIL-18BP 1 μg/ml, 10 μg/ml antibody, 72 hours
Protocol: MEL624 cells were co-cultured with human TILs that were previously enriched for MARTI or gp100 peptide-specific clones. rhIL-18 (R&D systems, 50 ng/ml) and rhIL-18BP (R&D systems, 1 μg/ml) were added to the co-culture for 30 minutes to allow the formation of IL-18:IL-18BP complex prior to treatment with 10 μg/ml ADI-71739 or isotype control. The co-culture was monitored for 72 hours using an IncuCyte live cell imaging instrument. […] In the presence of the isotype control antibody (black), IL-18BP abrogated the effects of IL-18, while the anti-IL-18BP antibody (turquoise) was able to completely restore these effects.

endogenous IL-18BP = biological target: T3, endogenous IL-18BP (Homo sapiens, UniProt O95998); test: MEL624:TIL co-culture with endogenous IL-18BP levels, IFNg release; format: cell-based; conditions: IL-18 3.7 ng/ml, 5 μg/ml antibody, 18 hours, vs isotype
T3 construct: endogenous in cells; host or cells: MEL624 cells co-cultured with human TILs
T3 sequence (O95998 31-194): T2 sequence (O95998 31-194)
Protocol: A. Schematic representation of assay setup. MEL624 cells were co-cultured with human TILs that were previously enriched for MARTI or gp100 peptide-specific clones. IL-18 (3.7 ng/ml) was added to the co-culture along with 5 μg/ml ADI-71739 or isotype control. The co-culture was set for 18 hours following which IFNg levels were measured in supernatants. B. IFNg levels were increased in co-cultures treated with ADI-71739 (turquoise) as compared with isotype-treated samples (black). Representative examples from two TIL donors are shown.

For “IL18-BPa: most abundant human IL18-BP isoform, isoform a”, the Kd (IL18) is given as ~0.4 nM.

With “IL-15: IL15 given as single dose of 0.5 μg or 1.5 μg, or mixed with IL15R [reference compound]” the Spleen size [1] was “larger than controls”.

B1: ADI-71709: anti-IL18-BP antibody, VH SEQ ID NO: 54, VL SEQ ID NO: 59 (FIG. 2A), 66650 lineage (antibody, V domains shown)
VH: QVQLVQSGAEVKKPGASVKVSCEASGYTFDIYAVHWVRQAPGQRLEWMGWIHAGTGATKYSQKFQGRVTITRDTSASTAYMELSSLRSEDTAVYYCARGLGEVGPTGTSWFDPWGQGTLVTVSS
VL: DIQMTQSPSTLSASVGDRVTITCRASQSISSWLAWYQQKPGKAPKLLIYEASSLESGVPLRFSGSGSGTEFTLTISSLQPDDFATYYCQQYRQSPFTFGGGTKVEIK
With B1 the “Signs of systemic immune activation” value (human whole blood) was “did not show signs of systemic immune activation”.

B2: ADI-71739: anti-IL18-BP antibody, VH SEQ ID NO: 154, VL SEQ ID NO: 159 (FIG. 2K), 66716 lineage (antibody, V domains shown)
VH: QLQLQESGPGLVKPSETLSLTCTVSGGSISSPDYPWGWIRQPPGKGLEWIGSIYYQGATYYNPSLKSRVTISVDTSKNQFSLKLSSVTAADTAVYYCARGPYRQLFDYWGQGTLVTVSS
VL: DIQMTQSPSSVSASVGDRVTITCRASQGISSWLAWYQQKPGKAPKLLIYAASSLQSGVPSRFSGSGSGTDFTLTISSLQPEDFATYYCQQGSVFPYTFGGGTKVEIK
In the case of B2, the “IFNγ secretion from TILs” value [2] is reported as “increase IFNγ secretion from TILs compared to isotype control”, the “IFNγ secretion by CMV-reactive T-cells” value [3] is reported as “increase IFNγ secretion by the T cells” and the “Killing of melanoma cells by tumor infiltrating lymphocytes” value (MEL624 cells) is reported as “increased killing of melanoma cells by tumor infiltrating lymphocytes”. The “IFNg release by tumor infiltrating lymphocytes” value (endogenous IL-18BP) was “increased IFNg release by tumor infiltrating lymphocytes”.

B3: ADI-71722: anti-IL18-BP antibody, VH SEQ ID NO: 84, VL SEQ ID NO: 89 (FIG. 2D), 66670 lineage (antibody, V domains shown)
VH: QVQLVQSGAEVKKPGSSVKVSCKASGGTFSEYPISWVRQAPGQGLEWMGGIIPGAGTAIYAQKFQGRVTITADESTSTAYMELSSLRSEDTAVYYCARGRHFHETWGQGTLVTVSS
VL: B2 VL with G91V, S92Y, V93R, Y96W
For B3, the “IFNγ secretion by CMV-reactive T-cells” value [3] was “fully restore IFNγ secretion”.

— patent US20250297018A1, “IL-18BP ANTAGONIST ANTIBODIES AND THEIR USE IN MONOTHERAPY AND COMBINATION THERAPY IN THE TREATMENT OF CANCER” (Compugen Ltd., priority 2022, published 2025)
